Experiment [1] deals with FHR-1_(1-3)::FHR-B4-5 hybrid protein (human | mouse). Nature of the experiment: AUC; sedimentation velocity, 48000 rpm, protein in PBS pH 7; c(s) distributions with SEDFIT; dimer to monomers.
Experiment [2] deals with FHR-B1-3::FHR-1_(4-5) hybrid protein (mouse | human). The description is as above.
Experiment [3] deals with FHR-B_(Del.1) (mouse). The description is as above.
The target in experiment [4] is FHR-B_(Dup.1-3) (mouse). The experiment is described as above.
Experiment [5] deals with FHR-B_(T161A,I166V) (mouse). The experiment is described as above.
In experiment [6] the target is FHR-B_(Y162H) (mouse). Described as above.
Experiment [7] deals with recombinant form of the native mouse FHR-B protein (rFHR-B) (mouse). The description is as above.
Experiment [8] has the same target. Briefly: AUC; sedimentation velocity after exposure to pH 2.5 or pH 10.5 and dialysis back to physiological conditions.

This is an account of results in article PMC11813886.

In experiment [1], FHR-1_(1-3)::FHR-B4-5 hybrid protein gave a stoichiometry N of 2. In turn, FHR-B1-3::FHR-1_(4-5) hybrid protein displayed a stoichiometry N in experiment [2] of 2. For FHR-B_(Del.1) (domain or fragment), in experiment [3], the stoichiometry N is 2. FHR-B_(Dup.1-3): the stoichiometry N in experiment [4] was 2. FHR-B_(T161A,I166V) (natural protein): in experiment [5], the stoichiometry N is 2.

Regarding FHR-B_(Y162H) (natural protein), the stoichiometry N in experiment [6] came to 2.

Take “recombinant form of the native mouse FHR-B protein (rFHR-B) (natural protein)”: the stoichiometry N in experiment [7] and in experiment [8] was 2 each time.
